The values below come from paper PMC7865352, “The Relevance of the SH2 Domain for c-Src Functionality in Triple-Negative Breast Cancer Cells”.

The target of this series is GST-SH2 (c-Src SH2 domain) (human, UniProt P12931 151-248). The series can be described thus: ELONA; ELONA with plated GST proteins and digoxigenin-labelled aptamers (buffer not given in material); selection in PBS + 1 mM Mg, 37 C. To be noted: protein: recombinant, label: digoxigenin.

B1: ApSH2.17F (ssDNA)
DNA: GCGGATGAAGACTGGTGTGCGGTGGTGGGTTGGGTGGGTGGGTTTGCGGGTTGCGTTGGCCCTAAATACGAGCAAC
As for B1, the binding result (G-quadruplex examined in silico) is on record as “binds”.

B2: ApSH2.14F (ssDNA)
DNA: GCGGATGAAGACTGGTGTAGACAATGGATACTCCCGCCACCTCCTCCCCCGCCCCCCCGCCCTAAATACGAGCAAC
On to B2, for which the binding result is “binds”.
